Assay results: the DeepSol protein solubility set

Assay: soluble on expression in E. coli; label from the status in PepcDB or PDB records

Sequence	soluble on expression in E. coli
MDATISVVCYKSKTLSNGEHPLMLRISKDGKKKYQSLGISVNPKFWDFQKNKPKPKCPNLEYLQKIILDKKLELQKKMLEIKSDQKEYSAATLIEANEKLQVAKNVDCFYKEIIAQCEINNKCGNRLVYLNSYNSLKRFTNGKLEIPFNTINVAWLEKYEKWLRSNGNKETTISLMFRTLRSTYNKAIKERCAHLSDYPFQEYKISKFDTSTQKRAIAKTDMLKFTETSQPIGQKKYVELSKDIFIFSYLCGGINFTDIANLTQENIVNGRLHYIRQKTGKLIKIGIPQEAMQIIKKYTDESNG	not soluble
MDPKFLVVEIDSKERALQLVQVMLENGFARFMLLDDLSRHPTLDRIQREEPRISRDELRETASSPVTFETRHSPYPVHEQKVLFPSFSQVSNSMVTSTGIRQEASSVGVGPIEDDDIVEEEEEEDIRLTSKPCVKRRYDHHAEEQEYRDQLMSLLSGEPEIVPIGVNSNDEPSGSNSDSAAKKAKSVGDYHECQLCGVRVKTPRSGRWNLQMHVIALHCVGRQYKCKQCDYLDYRKSTMRKHTVSQHGSDIPPHNITDNIMKAEWHAAMIKCFPEFAHRTGFLN	not soluble
MSLKAAVYEGKKAIKMTELPTPKAGPNDVVIQNIYAGICGSDVAVYNHGSGTGHKIETDHEFGHEAVSKVVEVGDDVHDFKIGDRVYPYPLLARGDPSRAGSMGGFSEYILIPNAKLNRQLYLVPKEIDNHVAAMIEPFTVGTRAAKQTRPDKNDNAIVYGTGTIGMAAAVALKHLGVKQVMLVDLSDYRLNVAKELGFLTVNSSRDDVRSQAIEAFGKAEYSLHGEAPDTQIFLDAAGHNSILEDFLQFGPVGSRFVTVGVNNSKPQIDFLELIFGSKSVGGSGGYRPEDVQTVFEIMKERQSDLRKMVSQEFDWQDLEKGIQTATDTTISEKVLINYHEGHHHHHH	soluble
MANFQATIHSRPLSPEFMTQARRPASTIQAVLTNLREKISLQSILPGARLTEEELVDNYSIPRAMAREVLAVLEDRGIVRRIPNKGAVVAHVDMQWVYHYYDAREALDGMMVRLAARQTRPEDWADLVEQFGEPFQKALETGDVDRLISLIETFRNRLQTAANNPVLSDLAERIHERIRVVRQRVVLLPGRAETMVADYRAVLAALARSDAEEAEQLMGILNRNNRAAIQKYERYVV	not soluble
MSLWHGVIVATSLPFDDDLSVDFGAYGESVAHLAAQGMHGVAPNGSLGEYQTLTYEERDRVVETAVANAPEGFTVMPGVGAYGGREAERHARFAKDAGCQAVMCLPPNAYRADDRAVLQHFERVASVGLPVTAYNNPIDTKVDLRPDLLAKLHAEGYIVGVKEFSGDVRRCYEISELAPGLDLMIGTDDTVLEVALAGAKGWVAGYPQVFPRACLALYEASVRGDLEAALPLYRQLHPVLRWDSKTEFVQAIKLGQELTGRRGGPCRPPRQPLAPETEAVVRAATQALVDAGVNEGHHHHHH	soluble
MFNFEKFWQHFNDEMRARFNEVAYNAWFKNTKPISYNQKTHELKIQVQNPVAKGYWEKNLSSQLIQSAYGYAGVELLPVFQISEDSDTPERIVTPEPQHNLQTTPTRAPQREFAKDLKLNEKYTFDNFVQGEGNKLAAGAALAVADSPGSFYNPLFIFGGVGLGKTHLMQAIGHQMLVERPNAKVVYIQSETFVNDFINSIKNKTQDKFREKYRTCDLLLVDDIQFFAKKEGIQEEFFHTFETLYNDQKQIVMTSDRLPTEIPDLSERLVSRFTWGLQVEITPPDLETRIAILRRKAEAEGLTIDDDTLDYIASQVDTNIRELEGALVKVQAYATIEKADIDINLAREALVDLKLVQKNRGLQIPKIQEVVANYFQTSTAELKGKKRVRQIVIPRQIAMYLSRELTDASLPKIGQEFGGKDHTTVMHAYDKIDKQMKTDADIKTAVFDLKQMLEHLEHHHHHH	not soluble
MSIQKNTSTTSSSTLLDLIVIGGGINGAGIAADAAGRGLSVGLYEANDFASATSSASSKLIHGGLRYLEHYEFRLVSEALAEREVILRKAPHVALPMRFRLPHRPFLRPAWMIRCGLFLYDNLGKRTTLPGSKTVNLAKSGLLKPEMKTGFEYSDCWVDDARLVLLNVMAARENHAEVRNYCRVEKAHRENGVWHVTIHDVTTDQRFERKAKALVNAAGPWVKQFFDEGLEQTSPRNIRLIKGSHIVVPRIHNEPQAYILQNKDNRIVFMIPYLDKFSIIGTTDVEYKGDPREVAISDDEVDYLIDIVNQHFVHQLTREDVVWTYSGVRPLCDDESDSPQAITRDYTLELDAEYDQAPLLSVFGGKLTTYRKLGEAAMKKLEPYLPQMGGNWTANQTLPGGNFSCTREQLAKQIHAKYSWAPQALILRYVTQFGTQTWDLMEGASSEADLGQAFSEQAGGVYQREIDYLMNHEMALTDEDILWRRTKLGLYMNDEEKQALADYLKEKLQQKVVNLSQVSLEHHHHHH	soluble
MGSDKIHHHHHHMYSDQTYEVIKNRTLENINLDIYKGEGSFLNNMVSGNNLELSKIYLELSKMHKMAFIQDTYNQFLDKRVNEFGVYRKLGTESNGEVEFIGEKGTVINNGTIISYRDLLFVVIKDVTIGSEEGDNSPVQALEVGKKYNLPTNCEFKLVDNISGVTKITNTRSFEGGTDIETDEELKERFYKIQRNQATSGNKAHYEEWALEVDGVYNVKVYPRWDGPGTVKVLIFGKNNQAVDTETIERCQQHIDEEKPIGPTITVVTPLPIEISISAVMKLEDGYTLDNVKESFLESINTYFRDIRGEIIYTKVMGILINTTGVHDLSNLLINGSTDNITINEDKIPSVTTVNFSEVENQ	not soluble
MSDEKIINQPQDVVSEMLDGLTYAYGDLIEKVPDFEIIQRKSPKSGKVALVSGGGSGHEPAHAGFVGEGMLSAAVCGAIFTSPTPDQIYEAIKSADEGAGVLLIIKNYLGDVMNFEMAREMAEMEEIKVEQIIVDDDIAVENSLYTQGRRGVAGTVLVHKILGAAAHQEASLDEIKDLADKVVKNIKTIGLALSAATVPEVGKPGFVLDDNEIEYGVGIHSEPGYRREKMKTSYELATELVGKLKEEFKFEAGQKYGILVNGMGATPLMEQFIFMNDVAKLLTEENIEILFKKVGNYMTSIDMAGLSLTMIKLEDDQWLKNLNEDVKTISWG	soluble
MELGLAGKTALVAASSQGLGKAIARALVLEGTNVMITSRNEEKLHEVAEELNSLHKGRVAYTRTDVTNADDIRQLVAKTVETFGTIDLLVNNAGGPPAGTFETVSDEDWQYAFELNLLSYIRLIREALPYLKKKGGKIVNIASSSIKEPIPGLILSNTFRTGIVGLTKTLAVELAPDGILINTVAPGRIATERVAFLDKVNAEKLGITKEEMEARMKSAIPLGRYGTPEEFANVVVFLLSEANSYVTGQALIVDGGMVKAI	soluble
SENLYFQGSANAVCQRCQARFSPAERIVNSNGELYHEHCFVCAQCFRPFPEGLFYEFEGRKYCEHDFQMLFA	soluble
MSLKIIPYSVNVMDEHGVIIASGEPSRLRQRHEGAILALKENRIVEIDSATANQLKGVRSGINLPISFHEQLIGVVGITGEPEEVRAYAELVKMAAELVIEHMVLIEQRQWDKRYREELINQLILRENSTESLRSMAAYLGIDLAVPRVVLIIELSQPDREALRNVMDYFENHARNHLVTFTEFNELIIIKPITLKEGKWNTRQEMGELQIFKSWAASSGFSRILVGGYFAGETGLHRSLLTARATQAMAKRQKLRSQYIFYHDHALPALLSGLSESWQVQELSRLWLQLVQHDAKGVLQQTLRTWFEHNCDLTQTAKALHIHVNTLRYRLQRCEDITHIKINELKSTLWLYIGMELQAESVSSDKLPLPGREGHHHHHH	not soluble
MSLKKRRTIGFLVNDIDVSYSNLVYLMTKKAAEKYDCNLIVYEGRSFNNPSMADSQHQISYSFVDNTRLDGIIITSATIACFISDEEFVEFCKRYEGIPLVSLGIVVPHATSILVDNKPGMKSQVEHLIKDHGFKKIVYISGPPTNTDSVERLEAYCEALRENDIEVDDGLIFYGDFMAQSGYDIIKEIIKNGIEYDAVVCANDEMAFGAIKGIRDLKDAYNLDLTQKGVICGFDDSITSRLVKPSLTTVRQPIEEMCFYAVEAILKKIEGEKVEDVVKLPSVLVKRESCGEGHHHHHH	soluble
MGSDKIHHHHHHMSPKTDIAEVNQESLYRIFTIPEAPDSTLGKIEKHLSENLMGFLGEHIVAREKPLQEIERDFDKSQIPEEPAFVSDHTEFLLDKLVAHSVHTASPRFIGHMTSALPYFLLPLAKLMVGLNQNLVKIETSKAFTPLERNVIGMMHHLVYQQDAPFYNRWMHSAQHSLGAFCSGGTIANMTALWVARNRLLQADGDFAGISADGLAAGLQHYGYSKLTVVVSERGHYSLSKAADVLGIGRRNLVSVATDSDNRIRIDELRKTCEKIAKEGGKVLALVGVAGTTETGHIDPLDEMATVAEEVDAHFHVDAAWGGATLLSEQHRPLLAGIERADSVTIDAHKQMYVPMGAGLVLFKNPALVKSIEYHAEYIIRQGSKDLGSHTMEGSRAGMAMMVFSAMHVIGRRGYELLINNSIDKARYFSKLISEQDDFEVITEPELCILTYRFVPIKVKTVLDKATPEQLARLTPHLNALTRYIQKRQRETGQSFVSRTKLTPAQYHHEPTVVFRVVLANPLTTNEMLQEVLCEQRKIAAKATSLRGALHTEMRELGMLI	not soluble
METSTIIDGGTSFVIDSEKKTITIYVKTADGSSVKAEGCTETVIESGTESTLNIKSSLIILKGNIIEFNCGGDPYTYGNQIKSLNVQGLKNLEKLNCSGNRLTELNIEGLNNLKELACRYNRLSSLDVAHLPALEFLWCTANLLTDLNLTGMSSLKRLGCNNNKLEVLNLEGLTSLEHLWCGNNLLNKLNLTDLKSLTGLNCEKNKLTELDLTGLTALEHLWCSKNLLTKLNLTKALHLQSLDCSSNMLTELNTEELNDLQYLNSSGNCLPLS	not soluble
MSLRETIKVGEKAPAFTVAALNGVDSISLSDYKGKIVIVHLWSPTCPHCRETNKVLPGIIGPYSKKANLAYIMIAIDMDTLTLRPVIEEDKLNFAIHGYDPFDGSAKTMMDYEAPGTPCINIVDEKGNLVGVNVTDDQLKKYLKKRFSRNSEGHHHHHH	not soluble
MGSDKIHHHHHHMSKVSLTIPPDFILGAAASAWQTEGWSGKKAGQDSYLDLWYKQDRQVWHNGYGPAKATDFFNRYREDVALMKLAGLTHYRTSINWSRFMLDYEKGIVDEEYAAYIDNLLDEMHRQGIEPMICLEHYELPACLLEKYQGWSSKQVVEWFVLYADTVFARYAGKVKRWFTFNEPIVVQTRVYLDALRYPYEQNTHTWMQWNHHKNLATAKVVQRFRQKGYDREGGSIGVILNPEVTYPRSRAAHDVKAAHLYDLFYNRVFLDPALKGEYPAELIALLAQHQVKWDYTEEELAIIRDNTVDEVGINLYYPHRVKAPSREWNKETPFHPAYYYEHFELPGRRMNTSRGWEINPKIIYDMAKRIEREYDNVPWFVAENGIGIENEARFKDDAGVIQDDYRIAFIAEHLYWTLKAKEEGANCRGYMLWAFTDNVSPMNAFKNRYGLIEIDLEQDRQRRPKKSAAWFRQLHDTRQLELTLDDEEK	not soluble
KLEGAFAKGTNVLMADGSIECIENIEVGNKVMGKDGRPREVIKLPRGRETMYSVVQKSQHRAHKSDSSREVPELLKFTCNATHELVVRTPRSVRRLSRTIKGVEYFEVITFEMGQKKAPDGRIVELVKEVSKSYPISEGPERANELVESYRKASNKAYFEWTIEARDLSLLGSHVRKATYQTYAPILYENDHFFDYMQKSKFHLTIEGPKVLAYLLGLWIGDGLSDRATFSVDSRDTSLMERVTEYAEKLNLCAEYKDRKEPQVAKTVNLYSKVVRGNGIRNNLNTENPLWDAIVGLGFLKDGVKNIPSFLSTDNIGTRETFLAGLIDSDGYVTDEHGIKATIKTIHTSVRDGLVSLARSLGLVVSVNAEPAKVDMNGTKHKISYAIYMSGGDVLLNVLSKCAGSKKFRPAPAAAFARECRGFYFELQELKEDDYYGITLSDDSDHQFLLANQVVVHACGER	soluble
